Target: T1, GST-ZW10 (full length GST-tagged human ZW10) (human, UniProt O43264 1-779)
T1 sequence (looked up): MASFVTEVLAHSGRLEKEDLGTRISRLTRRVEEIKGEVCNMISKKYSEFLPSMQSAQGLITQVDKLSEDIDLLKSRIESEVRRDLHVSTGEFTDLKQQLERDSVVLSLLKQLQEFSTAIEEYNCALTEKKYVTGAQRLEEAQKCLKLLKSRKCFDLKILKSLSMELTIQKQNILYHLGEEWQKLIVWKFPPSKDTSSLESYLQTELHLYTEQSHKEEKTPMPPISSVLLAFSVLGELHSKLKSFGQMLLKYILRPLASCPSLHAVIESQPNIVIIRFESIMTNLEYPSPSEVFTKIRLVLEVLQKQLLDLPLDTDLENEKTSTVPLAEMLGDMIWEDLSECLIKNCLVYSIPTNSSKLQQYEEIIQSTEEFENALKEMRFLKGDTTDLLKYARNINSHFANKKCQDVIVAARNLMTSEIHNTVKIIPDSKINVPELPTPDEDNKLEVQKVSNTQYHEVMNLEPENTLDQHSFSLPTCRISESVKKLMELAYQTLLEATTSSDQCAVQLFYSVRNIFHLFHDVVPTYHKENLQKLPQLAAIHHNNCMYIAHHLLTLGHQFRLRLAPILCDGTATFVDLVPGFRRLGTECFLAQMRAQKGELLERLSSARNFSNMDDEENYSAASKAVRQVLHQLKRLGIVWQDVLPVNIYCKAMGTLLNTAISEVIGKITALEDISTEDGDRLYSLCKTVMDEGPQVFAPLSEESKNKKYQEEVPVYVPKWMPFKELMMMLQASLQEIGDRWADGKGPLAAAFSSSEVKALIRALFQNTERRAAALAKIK
Assay: pull-down

B1: His-tagged human Chmp4c (natural protein, UniProt Q96CF2 1-233, looked up)
chain: MSKLGKFFKGGGSSKSRAAPSPQEALVRLRETEEMLGKKQEYLENRIQREIALAKKHGTQNKRAALQALKRKKRFEKQLTQIDGTLSTIEFQREALENSHTNTEVLRNMGFAAKAMKSVHENMDLNKIDDLMQEITEQQDIAQEISEAFSQRVGFGDDFDEDELMAELEELEQEELNKKMTNIRLPNVPSSSLPAQPNRKPGMSSTARRSRAASSQRAEEEDDDIKQLAAWAT
B1: binds.

— publication PMC5839794 (The Journal of Cell Biology, 2018)
